We go through 25 molecules from patent EP2028187A1 (BOARD OF REGENTS, THE UNIVERSITY OF TEXAS SYSTEM, dated 2009).

The labels stand for the following.
T1: GST-β3cyto (GST fusion protein of the integrin β3 cytoplasmic domain) (UniProt O54890)
T1 sequence: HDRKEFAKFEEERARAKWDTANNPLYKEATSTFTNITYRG

B1: CPRECESIC (SEQ ID NO:123) soluble peptide (peptide)
peptide: CPRECESIC
modifications: disulfide (positions not given here); also: mixture of disulfide isomers and dimers

Square brackets hold non-standard residues; d marks the D form. Ends that are not written are not given here. pY = N[C@@H](Cc1ccc(OP(=O)(O)O)cc1)C(=O)O

The target of the first assay is T1, GST-β3cyto (GST fusion protein of the integrin β3 cytoplasmic domain). The experiment in a line: colonies of Fyn-phosphorylated phage divided by those of unphosphorylated phage bound to the β3 cytoplasmic domain.
For RAIL[pY]RLAN (also: tyrosine phosphorylated in vitro with Fyn kinase) [Fyn-phosphorylated phage displaying … (SEQ ID NO:116)], the Phos/Unphos stood at 2.8.

A further assay has as its target GST-β5cyto (GST fusion protein of the integrin β5 cytoplasmic domain) (UniProt P18084). The assay is described as follows: competition ELISA on GST-β5-coated plates, in the presence of calcium.
With VVISYSMPD [VISY peptide (…, SEQ ID NO:112)], the % inhibition of Annexin V binding to GST-β5 stood at 67%.

The next assay has the same target. The assay is described as follows: phage colonies recovered from β5-GST-coated wells divided by those from BSA wells.
For the molecule CEPYWDGWFC [phage displaying … (SEQ ID NO:106)], the β5/BSA Ratio amounted to 400.

Take KQFSYRYLL [phage displaying … (SEQ ID NO:111)]: the β5/BSA Ratio turned out to be 8.

As to CWDQNYLDDC [phage displaying … (SEQ ID NO:109)], the β5/BSA Ratio came out at 100.

As to VVISYSMPD [phage displaying … (SEQ ID NO:112)], the β5/BSA Ratio was 28.

Consider DEEGYYMMR [phage displaying … (SEQ ID NO:110)], for which the β5/BSA Ratio was found to be 29.

Turning to CYIWPDSGLC [phage displaying … (SEQ ID NO:105)], the β5/BSA Ratio worked out at 193.

Consider SDWYYPWSW [phage displaying … (SEQ ID NO:113), selected on β5], for which the β5/BSA Ratio stood at 304.

The next assay has the same target. The assay is described as follows: competition ELISA on GST-β5-coated plates, in the absence of calcium. Background: ELISA stands for enzyme-linked immunosorbent assay.
On to VVISYSMPD [VISY peptide (…, SEQ ID NO:112)], for which the % inhibition of Annexin V binding to GST-β5 turned out to be 45%.

A further assay has as its target T1, GST-β3cyto (GST fusion protein of the integrin β3 cytoplasmic domain). The assay is described as follows: phage colonies recovered from β3-GST-coated wells divided by those from GST wells.
For the molecule SDWYYPWSW [phage displaying … (SEQ ID NO:100), selected on β3], the β3/GST Ratio stood at 2.1.

Turning to CNLSSEQC [phage displaying CNLSSEQC (SEQ ID NO:103)], the β3/GST Ratio stood at 2.7.

With YEWWYWSWA [phage displaying … (SEQ ID NO:98)], the β3/GST Ratio was determined as 2.2.

For GLDTYRGSP [phage displaying … (SEQ ID NO:96)], the β3/GST Ratio turned out to be 4.1.

Turning to YDWWYPWSW [phage displaying … (SEQ ID NO:95)], the β3/GST Ratio is 5.6.

With CEQRQTQEGC [phage displaying … (SEQ ID NO:93)], the β3/GST Ratio stood at 4.3.

Turning to CFQNRC [phage displaying CFQNRC (SEQ ID NO:102)], the β3/GST Ratio is 3.1.

Take SDNRYIGSW [phage displaying … (SEQ ID NO:97)]: the β3/GST Ratio came out at 3.3.

For CARLEVLLPC [phage displaying … (SEQ ID NO:94)], the β3/GST Ratio is 2.8.

As for KVSWYLDNG [phage displaying … (SEQ ID NO:99)], the β3/GST Ratio is 2.1.

Regarding CLRQSYSYNC [phage displaying … (SEQ ID NO:104)], the β3/GST Ratio turned out to be 2.4.

The target in the next assay is Aminopeptidase A (APA, EC 3.4.11.7) on cells (UniProt Q07075). The experiment in a line: phage binding to SK-RC-49/APA cells in suspension, phage rescued and counted (not shown).
Aminopeptidase A (APA, EC 3.4.11.7) on cells (UniProt Q07075), sequence (Q07075 whole entry): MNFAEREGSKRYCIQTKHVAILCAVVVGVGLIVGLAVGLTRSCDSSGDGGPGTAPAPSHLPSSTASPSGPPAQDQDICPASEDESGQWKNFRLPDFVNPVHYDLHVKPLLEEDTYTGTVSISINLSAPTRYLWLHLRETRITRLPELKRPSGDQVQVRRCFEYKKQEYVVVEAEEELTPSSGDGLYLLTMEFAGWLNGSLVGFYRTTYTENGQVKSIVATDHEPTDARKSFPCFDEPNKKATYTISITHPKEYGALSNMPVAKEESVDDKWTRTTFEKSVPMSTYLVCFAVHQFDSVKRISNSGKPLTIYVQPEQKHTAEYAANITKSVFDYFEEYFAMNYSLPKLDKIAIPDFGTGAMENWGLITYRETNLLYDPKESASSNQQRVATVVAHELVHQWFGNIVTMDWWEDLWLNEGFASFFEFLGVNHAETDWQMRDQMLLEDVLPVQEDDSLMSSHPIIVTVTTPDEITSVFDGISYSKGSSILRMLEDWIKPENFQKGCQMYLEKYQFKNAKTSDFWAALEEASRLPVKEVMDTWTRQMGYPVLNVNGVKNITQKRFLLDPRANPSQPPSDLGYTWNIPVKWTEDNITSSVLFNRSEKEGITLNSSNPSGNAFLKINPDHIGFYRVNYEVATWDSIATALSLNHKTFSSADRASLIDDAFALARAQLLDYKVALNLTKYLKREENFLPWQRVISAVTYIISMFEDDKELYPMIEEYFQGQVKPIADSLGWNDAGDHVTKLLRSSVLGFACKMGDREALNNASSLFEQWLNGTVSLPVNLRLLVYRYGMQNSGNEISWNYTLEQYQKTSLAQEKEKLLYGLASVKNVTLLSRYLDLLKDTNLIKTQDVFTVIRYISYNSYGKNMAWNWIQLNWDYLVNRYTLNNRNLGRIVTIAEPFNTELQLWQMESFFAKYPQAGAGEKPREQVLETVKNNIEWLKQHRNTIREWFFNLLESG
On to CLGQCASICVNDC [phage displaying … (SEQ ID NO:126)], for which the fold enrichment relative to SK-RC-49 parental cells was found to be 6 fold.

Consider CPKVCPRECESNC [phage displaying … (SEQ ID NO:127)], for which the fold enrichment relative to SK-RC-49 parental cells turned out to be 6 fold.

CYNLCIRECESICGADGACWTWCADGCSRSC [phage displaying … (SEQ ID NO:125)]: the fold enrichment relative to SK-RC-49 parental cells was determined as 6 fold.

In the next assay the target is GST-β5cyto (GST fusion protein of the integrin β5 cytoplasmic domain) (UniProt P18084). The assay is described as follows: phage colonies recovered from β5-GST-coated wells divided by those from GST wells.
GST-β5cyto (GST fusion protein of the integrin β5 cytoplasmic domain), sequence (P18084 other isoform, or with tags, fused parts or gaps): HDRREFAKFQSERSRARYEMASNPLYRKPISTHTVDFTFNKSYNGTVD
Consider CEPYWDGWFC [phage displaying … (SEQ ID NO:106)], for which the β5/GST Ratio worked out at 3.1.

Regarding KQFSYRYLL [phage displaying … (SEQ ID NO:111)], the β5/GST Ratio turned out to be 4.5.

For CWDQNYLDDC [phage displaying … (SEQ ID NO:109)], the β5/GST Ratio was 1.5.

For VVISYSMPD [phage displaying … (SEQ ID NO:112)], the β5/GST Ratio is 3.8.

As for DEEGYYMMR [phage displaying … (SEQ ID NO:110)], the β5/GST Ratio stood at 11.5.

As for CYIWPDSGLC [phage displaying … (SEQ ID NO:105)], the β5/GST Ratio stood at 5.2.

As to SDWYYPWSW [phage displaying … (SEQ ID NO:113), selected on β5], the β5/GST Ratio is 2.4.

A further assay deals with T1, GST-β3cyto (GST fusion protein of the integrin β3 cytoplasmic domain). The experiment in a line: β3 colonies divided by GST colonies after panning.
Molecule RAIL[pY]RLAN (also: tyrosine phosphorylated in vitro with Fyn kinase) [Fyn-phosphorylated phage displaying … (SEQ ID NO:116)] showed a β3 or β5/GST of 1.3.

Another assay addresses GST-β5cyto (GST fusion protein of the integrin β5 cytoplasmic domain) (UniProt P18084). The assay is described as follows: colonies of Fyn-phosphorylated phage divided by those of unphosphorylated phage bound to the β5 cytoplasmic domain.
Take TLRK[pY]FHSS (also: tyrosine phosphorylated in vitro with Fyn kinase) [Fyn-phosphorylated phage displaying … (SEQ ID NO:121)]: the Phos/Unphos was determined as 1.8.

Another assay shares this target. The experiment in a line: β5 colonies divided by BSA colonies after panning.
TLRK[pY]FHSS (also: tyrosine phosphorylated in vitro with Fyn kinase) [Fyn-phosphorylated phage displaying … (SEQ ID NO:121)] showed a β3 or β5/BSA of 7.3.

The target of another assay is T1, GST-β3cyto (GST fusion protein of the integrin β3 cytoplasmic domain). The assay is described as follows: phage colonies recovered from β3-GST-coated wells divided by those from BSA wells.
On to SDWYYPWSW [phage displaying … (SEQ ID NO:100), selected on β3], for which the β3/BSA Ratio came to 157.

On to CNLSSEQC [phage displaying CNLSSEQC (SEQ ID NO:103)], for which the β3/BSA Ratio stood at 62.

As to YEWWYWSWA [phage displaying … (SEQ ID NO:98)], the β3/BSA Ratio came out at 28.1.

GLDTYRGSP [phage displaying … (SEQ ID NO:96)]: the β3/BSA Ratio was 48.

As for YDWWYPWSW [phage displaying … (SEQ ID NO:95)], the β3/BSA Ratio came out at 163.

CEQRQTQEGC [phage displaying … (SEQ ID NO:93)]: the β3/BSA Ratio is 14.

Consider CFQNRC [phage displaying CFQNRC (SEQ ID NO:102)], for which the β3/BSA Ratio is 16.

Regarding SDNRYIGSW [phage displaying … (SEQ ID NO:97)], the β3/BSA Ratio came to 32.

Take CARLEVLLPC [phage displaying … (SEQ ID NO:94)]: the β3/BSA Ratio is 18.7.

For the molecule KVSWYLDNG [phage displaying … (SEQ ID NO:99)], the β3/BSA Ratio turned out to be 20.

For CLRQSYSYNC [phage displaying … (SEQ ID NO:104)], the β3/BSA Ratio amounted to 3.2.

The target is the same in another assay. The experiment in a line: β3 colonies divided by BSA colonies after panning.
On to RAIL[pY]RLAN (also: tyrosine phosphorylated in vitro with Fyn kinase) [Fyn-phosphorylated phage displaying … (SEQ ID NO:116)], for which the β3 or β5/BSA stood at 20.

The next assay concerns the target GST-β5cyto (GST fusion protein of the integrin β5 cytoplasmic domain) (UniProt P18084). The experiment in a line: β5 colonies divided by GST colonies after panning.
The molecule TLRK[pY]FHSS (also: tyrosine phosphorylated in vitro with Fyn kinase) [Fyn-phosphorylated phage displaying … (SEQ ID NO:121)] showed a β3 or β5/GST of 5.6.

The target in the next assay is Aminopeptidase A (APA, EC 3.4.11.7) on cells (UniProt Q07075 1-957, limits assumed). The experiment in a line: cell-based or functional assay.
Aminopeptidase A (APA, EC 3.4.11.7) on cells (UniProt Q07075 1-957, limits assumed), sequence (Q07075 whole entry): as the sequence (Q07075 whole entry) above
For the molecule B1, the “APA enzyme activity on SK-RC-49/APA cells (α-glutamyl-p-nitroanilide, colorimetric), IC50” value was determined as 800 µM.
